Data on 8 molecules can be found in US20140213531A1 (POLYPHOR, published 2014).

Assay in all cases: cell-based or functional assay
Assay [1] has as its target Thrombin, from Human Plasma, high activity (human, UniProt P00734 328-622).
The target in assay [2] is Urokinase from human urine (human, UniProt P00749 21-431, limits assumed).
Assay [3] has as its target T1, Elastase from human neutrophils (human, UniProt P08246 30-247, limits assumed).
T1 sequence (looked up): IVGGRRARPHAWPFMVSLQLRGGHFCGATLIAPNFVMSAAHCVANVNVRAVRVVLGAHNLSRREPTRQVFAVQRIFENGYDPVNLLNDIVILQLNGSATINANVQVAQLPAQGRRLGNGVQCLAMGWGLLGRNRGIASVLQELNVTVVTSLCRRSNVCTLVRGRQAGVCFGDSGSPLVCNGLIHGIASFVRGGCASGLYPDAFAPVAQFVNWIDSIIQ

Assay [4] addresses T2, CathepsinG, from human neutrophils (human, UniProt P08311 21-244).
T2 sequence (looked up): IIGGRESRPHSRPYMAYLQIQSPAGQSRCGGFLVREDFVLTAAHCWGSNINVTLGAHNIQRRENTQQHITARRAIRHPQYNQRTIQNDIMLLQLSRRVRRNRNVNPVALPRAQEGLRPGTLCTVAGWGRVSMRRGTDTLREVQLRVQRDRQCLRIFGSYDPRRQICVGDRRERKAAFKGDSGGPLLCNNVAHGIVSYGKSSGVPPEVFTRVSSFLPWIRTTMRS

In a further assay the target is T3, Chymase, from human skin (human, UniProt P23946 22-247).
T3 sequence (looked up): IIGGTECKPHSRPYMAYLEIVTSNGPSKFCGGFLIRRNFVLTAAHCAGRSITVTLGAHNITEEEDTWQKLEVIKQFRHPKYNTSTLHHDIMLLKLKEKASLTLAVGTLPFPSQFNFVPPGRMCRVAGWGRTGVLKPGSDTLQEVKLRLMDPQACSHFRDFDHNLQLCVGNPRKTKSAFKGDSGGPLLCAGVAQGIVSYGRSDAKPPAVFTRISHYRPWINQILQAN

Assay [5] concerns the target Chymotrypsin, from human pancreas (human, UniProt P17538 19-263).
The target in assay [6] is Trypsin, Iodination grade, from human pancreas (human, UniProt P07477 24-247).
In assay [7] the target is Coagulation Factor Xa, from human plasma (human, UniProt P00742 41-488, limits assumed).
Sequence of Coagulation Factor Xa, from human plasma (P00742 41-488 limits assumed): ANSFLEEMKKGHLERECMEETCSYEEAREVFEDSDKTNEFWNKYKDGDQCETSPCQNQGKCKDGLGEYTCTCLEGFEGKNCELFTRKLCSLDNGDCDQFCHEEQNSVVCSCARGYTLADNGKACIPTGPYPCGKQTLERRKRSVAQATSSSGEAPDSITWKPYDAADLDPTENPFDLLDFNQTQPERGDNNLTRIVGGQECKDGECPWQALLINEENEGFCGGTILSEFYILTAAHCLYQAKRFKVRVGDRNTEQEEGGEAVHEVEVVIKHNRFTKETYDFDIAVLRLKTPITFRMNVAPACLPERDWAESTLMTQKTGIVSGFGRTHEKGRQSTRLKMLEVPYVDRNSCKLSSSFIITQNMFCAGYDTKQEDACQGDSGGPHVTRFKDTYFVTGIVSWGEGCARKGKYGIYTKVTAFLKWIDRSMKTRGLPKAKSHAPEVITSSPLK
For assay [8], the target named is Tryptase, from human lung (human, UniProt Q15661 31-275, limits assumed).
Sequence of Tryptase, from human lung (Q15661 31-275 limits assumed): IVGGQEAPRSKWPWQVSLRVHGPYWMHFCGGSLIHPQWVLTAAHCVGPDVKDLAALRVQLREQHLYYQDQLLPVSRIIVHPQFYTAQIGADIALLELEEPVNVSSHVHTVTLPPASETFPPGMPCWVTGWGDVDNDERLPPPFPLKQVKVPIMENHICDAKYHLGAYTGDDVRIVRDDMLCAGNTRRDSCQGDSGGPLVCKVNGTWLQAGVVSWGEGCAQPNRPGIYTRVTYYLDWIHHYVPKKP

Sequence of Chymotrypsin, from human pancreas (P17538 19-263): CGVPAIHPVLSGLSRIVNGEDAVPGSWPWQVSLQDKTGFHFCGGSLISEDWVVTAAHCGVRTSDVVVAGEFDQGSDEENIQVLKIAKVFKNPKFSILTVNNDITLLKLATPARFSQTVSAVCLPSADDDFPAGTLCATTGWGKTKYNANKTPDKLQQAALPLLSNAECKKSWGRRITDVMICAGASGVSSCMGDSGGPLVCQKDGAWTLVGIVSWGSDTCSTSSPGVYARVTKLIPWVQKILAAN

B1: Example 57 (peptide)
peptide: ICTKSDPPXCR
HELM: PEPTIDE1{I.C.T.K.S.D.P.P.[Nle].C.R.[dP].P}$PEPTIDE1,PEPTIDE1,2:R3-10:R3|PEPTIDE1,PEPTIDE1,1:R1-13:R2$$$V2.0
SMILES: CCCC[C@@H]1NC(=O)[C@@H]2CCCN2C(=O)[C@@H]2CCCN2C(=O)[C@H](CC(=O)O)NC(=O)[C@H](CO)NC(=O)[C@H](CCCCN)NC(=O)[C@H]([C@@H](C)O)NC(=O)[C@@H]2CSSC[C@H](NC1=O)C(=O)N[C@@H](CCCNC(=N)N)C(=O)N1CCC[C@@H]1C(=O)N1CCC[C@H]1C(=O)N[C@@H]([C@@H](C)CC)C(=O)N2
One may read the % inhibition as the change of the read-out against control, counted positive when it falls. A high value points to strong suppression. B1: the “% inhibition at 100 µM” value in assay [1] is 11%; in assay [2], 4%; with Chymase, from human skin, 26.9%; in assay [5] it was 0%; in [6] it was 94%; in assay [7], 32%. Moreover, the IC50 in assay [3] is over 100000 nmol; in assay [4] it was 41 nmol.

B2: Example 30 (peptide)
peptide: XCTKSDPPICY
HELM: PEPTIDE1{[O=C([C@H](CCc1ccccc1)N[*:1])[*:2]].C.T.K.S.D.P.P.I.C.Y.[dP].P}$PEPTIDE1,PEPTIDE1,2:R3-10:R3|PEPTIDE1,PEPTIDE1,1:R1-13:R2$$$V2.0
SMILES: CC[C@H](C)[C@@H]1NC(=O)[C@@H]2CCCN2C(=O)[C@@H]2CCCN2C(=O)[C@H](CC(=O)O)NC(=O)[C@H](CO)NC(=O)[C@H](CCCCN)NC(=O)[C@H]([C@@H](C)O)NC(=O)[C@@H]2CSSC[C@H](NC1=O)C(=O)N[C@@H](Cc1ccc(O)cc1)C(=O)N1CCC[C@@H]1C(=O)N1CCC[C@H]1C(=O)N[C@@H](CCc1ccccc1)C(=O)N2
Regarding B2, the “% inhibition at 100 µM” value came out at 2% in assay [1]; 9% in [2]; 0% with Chymase, from human skin; 49% in assay [5]; 98% in assay [6]; 3% in [7]. For the same molecule, the figures for the IC50 in assay [3] and in assay [4] were 49900 nmol and 39 nmol, respectively.

B3: Example 81 (peptide)
peptide: XCTASXPPQCY
HELM: PEPTIDE1{[Nle].C.T.A.S.[CCCCCCCC[C@H](N[*:1])C(=O)[*:2]].P.P.Q.C.Y.[dP].P}$PEPTIDE1,PEPTIDE1,2:R3-10:R3|PEPTIDE1,PEPTIDE1,1:R1-13:R2$$$V2.0
SMILES: CCCCCCCC[C@@H]1NC(=O)[C@H](CO)NC(=O)[C@H](C)NC(=O)[C@H]([C@@H](C)O)NC(=O)[C@@H]2CSSC[C@H](NC(=O)[C@H](CCC(N)=O)NC(=O)[C@@H]3CCCN3C(=O)[C@@H]3CCCN3C1=O)C(=O)N[C@@H](Cc1ccc(O)cc1)C(=O)N1CCC[C@@H]1C(=O)N1CCC[C@H]1C(=O)N[C@@H](CCCC)C(=O)N2
For B3, the “% inhibition at 100 µM” value worked out at 13.1% in assay [1], 61.3% in [4] and 8.7% in assay [7]. The same molecule returned an IC50 in assay [3] of 28 nmol.

B4: Example 20 (peptide)
peptide: ICTKSDPPXCR
HELM: PEPTIDE1{I.C.T.K.S.D.P.P.[Cha].C.R.[dP].P}$PEPTIDE1,PEPTIDE1,2:R3-10:R3|PEPTIDE1,PEPTIDE1,1:R1-13:R2$$$V2.0
SMILES: CC[C@H](C)[C@@H]1NC(=O)[C@@H]2CCCN2C(=O)[C@H]2CCCN2C(=O)[C@H](CCCNC(=N)N)NC(=O)[C@@H]2CSSC[C@H](NC1=O)C(=O)N[C@@H]([C@@H](C)O)C(=O)N[C@@H](CCCCN)C(=O)N[C@@H](CO)C(=O)N[C@@H](CC(=O)O)C(=O)N1CCC[C@H]1C(=O)N1CCC[C@H]1C(=O)N[C@@H](CC1CCCCC1)C(=O)N2
Consider B4, for which the “% inhibition at 100 µM” value in [1] stood at 28%; in assay [2] it was 6.7%; in the assay with Chymase, from human skin it was 44.1%; in [5] it was 0%; in assay [6], 97%; in assay [7], 25%. The IC50 is over 100000 nmol in assay [3] and 48 nmol in assay [4].

B5: Example 19 (peptide)
peptide: ICTKSDPPXCR
HELM: PEPTIDE1{I.C.T.K.S.D.P.P.[Nle].C.R.[dP].P}$PEPTIDE1,PEPTIDE1,2:R3-10:R3|PEPTIDE1,PEPTIDE1,1:R1-13:R2$$$V2.0
SMILES: CCCC[C@@H]1NC(=O)[C@@H]2CCCN2C(=O)[C@@H]2CCCN2C(=O)[C@H](CC(=O)O)NC(=O)[C@H](CO)NC(=O)[C@H](CCCCN)NC(=O)[C@H]([C@@H](C)O)NC(=O)[C@@H]2CSSC[C@H](NC1=O)C(=O)N[C@@H](CCCNC(=N)N)C(=O)N1CCC[C@@H]1C(=O)N1CCC[C@H]1C(=O)N[C@@H]([C@@H](C)CC)C(=O)N2
Take B5: the “% inhibition at 100 µM” value came out at 11% in [1]; 4% in assay [2]; 26.9% with Chymase, from human skin; 0% in [5]; 94% in [6]; 32% in assay [7]. Also, the values for the IC50 in assay [3] and in [4] were over 100000 nmol and 41 nmol, respectively.

B6: Example 23 (peptide)
peptide: FCTXSDPPICY
HELM: PEPTIDE1{F.C.T.[Nle].S.D.P.P.I.C.Y.[dP].P}$PEPTIDE1,PEPTIDE1,2:R3-10:R3|PEPTIDE1,PEPTIDE1,1:R1-13:R2$$$V2.0
SMILES: CCCC[C@@H]1NC(=O)[C@H]([C@@H](C)O)NC(=O)[C@@H]2CSSC[C@H](NC(=O)[C@H]([C@@H](C)CC)NC(=O)[C@@H]3CCCN3C(=O)[C@@H]3CCCN3C(=O)[C@H](CC(=O)O)NC(=O)[C@H](CO)NC1=O)C(=O)N[C@@H](Cc1ccc(O)cc1)C(=O)N1CCC[C@@H]1C(=O)N1CCC[C@H]1C(=O)N[C@@H](Cc1ccccc1)C(=O)N2
For B6, the “% inhibition at 100 µM” value turned out to be 0% in assay [1]; 9% in [2]; 60% with Chymase, from human skin; 4% in [5]; 90% in assay [6]; 11% in assay [7]. For the same molecule, the IC50 in assay [3] is over 100000 nmol; in assay [4], 38 nmol.

B7: Example 49 (peptide)
peptide: FCTKSDPPICS
HELM: PEPTIDE1{F.C.T.K.S.D.P.P.I.C.S.[dA].P}$PEPTIDE1,PEPTIDE1,2:R3-10:R3|PEPTIDE1,PEPTIDE1,1:R1-13:R2$$$V2.0
SMILES: CC[C@H](C)[C@@H]1NC(=O)[C@@H]2CCCN2C(=O)[C@@H]2CCCN2C(=O)[C@H](CC(=O)O)NC(=O)[C@H](CO)NC(=O)[C@H](CCCCN)NC(=O)[C@H]([C@@H](C)O)NC(=O)[C@@H]2CSSC[C@H](NC1=O)C(=O)N[C@@H](CO)C(=O)N[C@H](C)C(=O)N1CCC[C@H]1C(=O)N[C@@H](Cc1ccccc1)C(=O)N2
With B7, the “% inhibition at 100 µM” value amounted to 7.9% in assay [1]; 6.2% in assay [2]; 30.5% in [8]; 0% with Chymase, from human skin; 0% in assay [5]; 96% in [6]. Further, the IC50 in assay [3] is over 10000 nmol; in assay [4] it was 82 nmol.

B8: Example 58 (peptide)
peptide: ICTKSDPPXCR
HELM: PEPTIDE1{I.C.T.K.S.D.P.P.[Cha].C.R.[dP].P}$PEPTIDE1,PEPTIDE1,2:R3-10:R3|PEPTIDE1,PEPTIDE1,1:R1-13:R2$$$V2.0
SMILES: CC[C@H](C)[C@@H]1NC(=O)[C@@H]2CCCN2C(=O)[C@H]2CCCN2C(=O)[C@H](CCCNC(=N)N)NC(=O)[C@@H]2CSSC[C@H](NC1=O)C(=O)N[C@@H]([C@@H](C)O)C(=O)N[C@@H](CCCCN)C(=O)N[C@@H](CO)C(=O)N[C@@H](CC(=O)O)C(=O)N1CCC[C@H]1C(=O)N1CCC[C@H]1C(=O)N[C@@H](CC1CCCCC1)C(=O)N2
Regarding B8, the “% inhibition at 100 µM” value was 28% in [1]; 6.7% in assay [2]; 44.1% with Chymase, from human skin; 0% in assay [5]; 97% in assay [6]; 25% in assay [7]. Further, the IC50 in assay [3] is over 100000 nmol; in [4] it was 47.5 nmol.
